Legend:
RaTG13 RBD protein = RaTG13 RBD protein (Bat coronavirus RaTG13, UniProt A0ABF7PLN6); test: ELISA; conditions: both partners purified
SARS-CoV RBD protein = SARS-CoV RBD protein (SARS-CoV, UniProt P59594); test: cell-based or functional assay

B1: GW01 (antibody, V domains shown)
VH: EVQLVESGGGVVQPGGSLRLSCAASGFRFDDHAMHWVRQAPGKGLEWVSVISGDGGSTYYADSVKGRFSISRDDSKNSLYLQMNSLRTEDTALYYCAKDRSYGPPDVFNYEYGMDVWGQGTTVTVSS
VL: not shown
notes: also called mAb GW01; antibody GW01
binding result (RaTG13 RBD protein): binds
IC50 of neutralisation of pseudotyped SARS-CoV on Huh-7 cells (SARS-CoV RBD protein): 0.0193 µg/mL

Reference: paper PMC9021188 (Cell Discovery, 2022)
